From paper PMC2773007

Molecular target: Dvl2 PRR2 mutant (Δ370–376), FLAG-tagged (human) (UniProt O14641)
Chain of UniProt O14641 (O14641 other isoform, or with tags, fused parts or gaps mutant): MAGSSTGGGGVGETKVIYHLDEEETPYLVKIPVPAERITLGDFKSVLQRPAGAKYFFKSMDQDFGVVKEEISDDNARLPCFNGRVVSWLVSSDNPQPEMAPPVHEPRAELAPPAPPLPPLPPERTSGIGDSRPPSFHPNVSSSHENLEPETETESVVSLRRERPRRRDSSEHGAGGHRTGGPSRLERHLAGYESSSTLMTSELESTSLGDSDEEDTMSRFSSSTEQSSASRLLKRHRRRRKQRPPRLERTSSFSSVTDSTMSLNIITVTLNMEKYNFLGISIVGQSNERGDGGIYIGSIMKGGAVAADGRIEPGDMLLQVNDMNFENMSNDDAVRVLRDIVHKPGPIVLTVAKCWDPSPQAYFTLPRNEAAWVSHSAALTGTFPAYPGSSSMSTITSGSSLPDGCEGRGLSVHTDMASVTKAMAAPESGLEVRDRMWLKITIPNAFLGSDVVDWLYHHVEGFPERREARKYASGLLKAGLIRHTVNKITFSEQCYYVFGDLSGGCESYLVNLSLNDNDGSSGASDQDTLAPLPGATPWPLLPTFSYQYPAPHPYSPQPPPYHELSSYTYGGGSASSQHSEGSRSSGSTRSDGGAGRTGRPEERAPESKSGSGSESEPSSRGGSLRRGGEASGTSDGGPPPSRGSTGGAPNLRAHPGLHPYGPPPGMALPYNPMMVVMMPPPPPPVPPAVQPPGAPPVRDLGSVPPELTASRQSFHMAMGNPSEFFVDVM

sTF LEF/TCF luciferase reporter in HEK293 cells, co-expression of the Dvl2 mutant and Grb2: 60 % decrease
Substance: HA-tagged Grb2 (human growth factor receptor-bound-2) (from UniProt P62993 1-217) (natural protein)
